Experimental data as given in the Immune Epitope Database (IEDB).

How the values were obtained:
HLA-A*24:02 = assay: IEDB peptide-MHC binding, purified MHC/competitive/fluorescence; filed as Kd, often an IC50 or EC50 that approximates it; ≥ and ≤ were set here for values at or beyond the usual limits of such assays
HLA-A*01:01 = assay: IEDB peptide-MHC binding, purified MHC/direct/fluorescence; filed as Kd, often an IC50 or EC50 that approximates it; ≥ and ≤ were set here for values at or beyond the usual limits of such assays
HLA-A*02:01 = assay: as above
HLA-A*03:01 = assay: as above
HLA-A*11:01 = assay: as above
HLA-A*26:01 = assay: as above; settings: source organism: Yersinia pestis
HLA-A*31:01 = assay: as above
HLA-A*69:01 [1] = assay: as above; settings: source organism: Yersinia pestis
HLA-B*07:02 = assay: as above
HLA-B*08:01 = assay: as above; settings: source organism: Yersinia pestis
HLA-B*15:01 = assay: as above
HLA-B*15:02 = assay: as above
HLA-B*27:05 [2] = assay: as above
HLA-B*35:01 = assay: as above; settings: source organism: Yersinia pestis
HLA-B*40:01 [3] = assay: as above
HLA-B*44:02 = assay: as above
HLA-B*46:01 [4] = assay: as above
HLA-B*58:01 = assay: as above
HLA-A*29:02 = assay: as above; settings: source organism: West Nile virus
HLA-B*15:09 = assay: as above
HLA-B*18:01 = assay: as above; settings: source organism: West Nile virus
HLA-B*39:01 = assay: as above
HLA-B*48:01 = assay: as above
HLA-B*57:01 = assay: as above
HLA-C*05:01 = assay: as above; settings: source organism: West Nile virus
HLA-B*08:02 = assay: as above
HLA-C*06:02 = assay: as above; settings: source organism: Campylobacter jejuni subsp. jejuni NCTC 11168 = ATCC 700819
HLA-A*32:07 = assay: IEDB peptide-MHC binding, purified MHC/competitive/fluorescence; filed as Kd, often an IC50 or EC50 that approximates it; ≥ and ≤ were set here for values at or beyond the usual limits of such assays; settings: source organism: Campylobacter jejuni subsp. jejuni NCTC 11168 = ATCC 700819
HLA-B*15:42 = assay: as above
HLA-B*40:13 = assay: as above
HLA-B*45:06 = assay: as above
HLA-B*46:01 [5] = assay: as above; settings: source organism: Campylobacter jejuni subsp. jejuni NCTC 11168 = ATCC 700819
HLA-B*83:01 = assay: as above
HLA-B*27:05 [6] = assay: IEDB peptide-MHC binding, purified MHC/competitive/fluorescence; ≥ and ≤ were set here for values at or beyond the usual limits of such assays
HLA-A*68:23 = assay: IEDB peptide-MHC binding, purified MHC/competitive/fluorescence; filed as Kd, often an IC50 or EC50 that approximates it; ≥ and ≤ were set here for values at or beyond the usual limits of such assays
HLA-B*27:20 = assay: as above; settings: source organism: Escherichia coli 536
HLA-B*40:01 [7] = assay: as above; settings: source organism: Escherichia coli 536
HLA-B*38:01 = assay: IEDB peptide-MHC binding, purified MHC/direct/fluorescence; filed as Kd, often an IC50 or EC50 that approximates it; ≥ and ≤ were set here for values at or beyond the usual limits of such assays; settings: source organism: Giardia lamblia ATCC 50803
HLA-A*69:01 [8] = assay: IEDB peptide-MHC binding, purified MHC/competitive/fluorescence; filed as Kd, often an IC50 or EC50 that approximates it; ≥ and ≤ were set here for values at or beyond the usual limits of such assays; settings: source organism: Giardia lamblia ATCC 50803
HLA-B*15:17 = assay: as above; settings: source organism: Giardia lamblia ATCC 50803
HLA-C*04:01 = assay: IEDB peptide-MHC binding, purified MHC/direct/fluorescence; filed as Kd, often an IC50 or EC50 that approximates it; ≥ and ≤ were set here for values at or beyond the usual limits of such assays; settings: source organism: Influenza A virus (A/turkey/Ohio/313053/2004(H3N2))
[9] = source organism: Yersinia pestis
[10] = source organism: West Nile virus
[11] = source organism: Campylobacter jejuni subsp. jejuni NCTC 11168 = ATCC 700819
[12] = source organism: Escherichia coli 536
[13] = source organism: Giardia lamblia ATCC 50803
[14] = source organism: Mycobacterium tuberculosis variant bovis BCG str. Pasteur 1173P2

MYSDFHFI gave a Kd (HLA-A*24:02; source organism: Influenza A virus (A/X-31(H3N2))) of 146 nM.

MQLQLNCAY showed a Kd (HLA-A*01:01; [9]) of 2770 nM, a Kd (HLA-A*02:01; [9]) of no less than 20 µM and a Kd (HLA-A*03:01; [9]) of no less than 20 µM. The Kd (HLA-A*11:01; [9]) was no less than 20 µM, the Kd (HLA-A*26:01) was no less than 20 µM and the Kd (HLA-A*31:01; [9]) was 6.35 µM. For the same sequence, the Kd (HLA-A*69:01 [1]) was 1330 nM, the Kd (HLA-B*07:02; [9]) was no less than 10 µM and the Kd (HLA-B*08:01) was no less than 20 µM. The Kd (HLA-B*15:01; [9]) was 112 nM, the Kd (HLA-B*15:02; source organism: Yersinia pestis CA88-4125) was 15 nM and the Kd (HLA-B*27:05 [2]; [9]) was no less than 20 µM. For the same sequence, the Kd (HLA-B*35:01) was 33.7 nM, the Kd (HLA-B*40:01 [3]; [9]) was 0.705 µM and the Kd (HLA-B*44:02; [9]) was no less than 20 µM. For the same sequence, the Kd (HLA-B*46:01 [4]; [9]) was no less than 20 µM.

In the case of RQLESRLGY, the Kd (HLA-A*02:01; [9]) is reported as no less than 20 µM, the Kd (HLA-A*03:01; [9]) is reported as 0.0616 µM and the Kd (HLA-A*11:01; [9]) is reported as 0.13 µM. The Kd (HLA-A*26:01) was no less than 20 µM, the Kd (HLA-A*31:01; [9]) was 0.288 µM and the Kd (HLA-A*69:01 [1]) was no less than 20000 nM. It also gave a Kd (HLA-B*07:02; [9]) of no less than 20 µM, a Kd (HLA-B*08:01) of no less than 20 µM and a Kd (HLA-B*15:01; [9]) of 146 nM. The Kd (HLA-B*15:02; source organism: Yersinia enterocolitica subsp. enterocolitica 8081) was 77 nM, the Kd (HLA-B*27:05 [2]; [9]) was 0.0656 µM and the Kd (HLA-B*40:01 [3]; [9]) was 3.74 µM. It also gave a Kd (HLA-B*46:01 [4]; [9]) of no less than 20 µM and a Kd (HLA-B*58:01; [9]) of no less than 20 µM.

Work on TSDYINTSL yielded a Kd (HLA-A*03:01; [10]) of no less than 20 µM, a Kd (HLA-A*11:01; [10]) of no less than 20 µM and a Kd (HLA-A*29:02) of no less than 20 µM. It also gave a Kd (HLA-A*31:01; [10]) of no less than 20 µM, a Kd (HLA-B*15:01; [10]) of no less than 20000 nM and a Kd (HLA-B*15:09; source organism: West Nile virus strain PTRoxo) of no less than 5 µM. For the same sequence, the Kd (HLA-B*18:01) was no less than 20 µM, the Kd (HLA-B*27:05 [2]; [10]) was no less than 20 µM and the Kd (HLA-B*39:01; [10]) was 1480 nM. The Kd (HLA-B*40:01 [3]; [10]) was no less than 20 µM, the Kd (HLA-B*44:02; [10]) was no less than 20 µM and the Kd (HLA-B*46:01 [4]; [10]) was no less than 20 µM. It also gave a Kd (HLA-B*48:01; [10]) of no less than 20 µM, a Kd (HLA-B*57:01; [10]) of no less than 20 µM and a Kd (HLA-B*58:01; [10]) of no less than 20 µM. It also gave a Kd (HLA-C*05:01) of 210 nM.

Sequence YMKKRYEEF has a Kd (HLA-B*08:02; source organism: Campylobacter jejuni subsp. jejuni 81116) of 127 nM, a Kd (HLA-C*06:02) of no less than 20 µM and a Kd (HLA-A*32:07) of 232 nM. It also gave a Kd (HLA-B*15:42; [11]) of no less than 5 µM, a Kd (HLA-B*40:13; [11]) of 326 nM and a Kd (HLA-B*45:06; [11]) of no less than 5 µM. The Kd (HLA-B*46:01 [5]) was 188 nM and the Kd (HLA-B*83:01; [11]) was no less than 5 µM.

RRFFPYYV was tested, and the IC50 (HLA-B*27:05 [6]; source organism: Homo sapiens) was 3.2 µM.

GGAAICGKY gave an IC50 (HLA-B*27:05 [6]; source organism: Hepacivirus hominis) of no less than 750 µM.

Sequence KEMGFSPRL has a Kd (HLA-A*68:23; [12]) of 121 nM, a Kd (HLA-B*15:42; [12]) of no less than 5 µM and a Kd (HLA-B*27:20) of 176 nM. It also gave a Kd (HLA-B*40:01 [7]) of 10.3 nM, a Kd (HLA-B*40:13; [12]) of 33.6 nM and a Kd (HLA-B*45:06; [12]) of no less than 5 µM. It also gave a Kd (HLA-B*83:01; [12]) of no less than 5 µM.

In the case of ETESVNSNY, the Kd (HLA-A*01:01; [13]) is reported as 18.8 nM, the Kd (HLA-A*02:01; [13]) is reported as no less than 20 µM and the Kd (HLA-A*03:01; [13]) is reported as no less than 20 µM. The Kd (HLA-A*11:01; [13]) was no less than 20 µM, the Kd (HLA-A*31:01; [13]) was no less than 20 µM and the Kd (HLA-B*07:02; [13]) was no less than 20 µM. For the same sequence, the Kd (HLA-B*08:02; [13]) was no less than 20000 nM, the Kd (HLA-B*15:01; [13]) was no less than 20000 nM and the Kd (HLA-B*15:09; [13]) was no less than 20 µM. For the same sequence, the Kd (HLA-B*27:05 [2]; [13]) was no less than 20 µM, the Kd (HLA-B*38:01) was no less than 20 µM and the Kd (HLA-B*39:01; [13]) was no less than 20000 nM. For the same sequence, the Kd (HLA-B*40:01 [3]; [13]) was no less than 20 µM, the Kd (HLA-B*46:01 [4]; [13]) was no less than 20 µM and the Kd (HLA-B*48:01; [13]) was no less than 20 µM. For the same sequence, the Kd (HLA-B*57:01; [13]) was no less than 20 µM, the Kd (HLA-B*58:01; [13]) was no less than 20 µM and the Kd (HLA-A*69:01 [8]) was no less than 20 µM. For the same sequence, the Kd (HLA-B*15:17) was no less than 20 µM.

Sequence RYSGFVRTL has a Kd (HLA-C*04:01) of no less than 20 µM and a Kd (HLA-A*24:02; source organism: Influenza A virus (A/turkey/Ohio/313053/2004(H3N2))) of 1.1 nM.

With TTFDLTLRR the Kd (HLA-A*68:23; [14]) was 12.1 nM, the Kd (HLA-B*15:42; [14]) was no less than 5 µM and the Kd (HLA-B*45:06; [14]) was no less than 5 µM. The Kd (HLA-B*83:01; [14]) was no less than 5 µM.
